The source of these data is US20260234276A1.

In test [1] the target is human CCR8 (human) (UniProt P51685). Put plainly: flow cytometry on lymphocytes from ascitic ovarian cancer, 1 µg mAb. In general terms: In flow cytometry, cells or beads pass a laser one at a time.
Test [2] has the same target. Put plainly: flow cytometry on lymphocytes from ascitic ovarian cancer, 0.1 µg mAb.
For test [3] the target is unchanged. As to the kind of experiment: flow cytometry on lymphocytes from ascitic ovarian cancer, 0.5 µg mAb.
For test [4] the target is unchanged. Put plainly: flow cytometry, hCCR8 transfected CHOK1 cells.

Consider Isotype ctrl (antibody), for which the Positive cells is 5.06% in test [1], 2.94% in test [2] and 3.81% in test [3].

In test [4], L263G8 (antibody) registered a % positive cells of 86.5% and an MFI fold change to isotype ctrl of 19.8 fold. The Positive cells in test [1] was 8.64%. The Positive cells in test [2] was 9.5%.
